Experimental data published in publication PMC12618258, “The human ribosome modulates multidomain protein biogenesis by delaying cotranslational domain docking” (Nature Structural & Molecular Biology, 2025).

Target: the molecule itself
Assay: SEC-MALS; 100 μl of Ns at 0.1 or 0.2 mg/ml (~5 or 10 µM) on Superdex 200 10/30 increase GL; 20 mM HEPES pH 7.5, 100 mM KCl, 5 mM magnesium acetate, 200 mM arginine-HCl, 1 mM DTT, 2 mM sodium azide

B1: isolated Ns (isoNs, residues 1–190) of firefly luciferase (domain or fragment, UniProt P08659 1-190, looked up)
chain: MEDAKNIKKGPAPFYPLEDGTAGEQLHKAMKRYALVPGTIAFTDAHIEVNITYAEYFEMSVRLAEAMKRYGLNTNHRIVVCSENSLQFFMPVLGALFIGVAVAPANDIYNERELLNSMNISQPTVVFVSKKGLQKILNVQKKLPIIQKIIIMDSKTDYQGFQSMYTFVTSHLPPGFNEYDFVPESFDRDK
notes: firefly luciferase (FLuc, 550 residues), UniProt Q27758_PHOPY, residues 1-190 (Ns subdomain), off the ribosome; The truncations carried an N-terminal His-SUMO tag; The printed monomer mass of ~21.5 kDa fits the cleaved fragment; source: E. coli BL21, purified (HisTrap, Ulp1 cleavage, reverse IMAC, Superdex gel filtration); not shown: His, N-terminal, cleaved; SUMO, N-terminal, cleaved
- stoichiometry N: 2
